{"source": "patent US20060122105A1", "about": "“Method of improing the growth performance of an animal” (priority 2001, published 2006)", "type_in_all_cases": "in vivo", "key": {"[1]": {"tested_on": "Actinobacillus pleuropneumoniae (App)", "experiment": "App challenge of pigs, prophylactic recombinant IL-1ra, plasmid IL-1ra or flunix (Example 5)", "set-up": "improvements in weight gain over saline controls / reduction in weight gain compared to saline controls / reduction in clinical symptoms compared to saline / reduction of pleurisy compared to saline treated controls / reduction in affected lung mass compared to saline treated controls: concentration or dose not given beside the values", "experimental": "Male pigs, with a mean starting weight of 52 kg, were allocated to 5 treatment groups as outlined in Table 6. Pigs were housed in group pens, with each pen containing a replicate from each of the treatment groups. The starting weights of each treatment group and each pen were equal prior to the start of the trial. Pigs were provided with pelleted feed and water ad libitum.\nRecombinant IL-1ra and saline-were administered as 1 ml doses, given subcutaneously behind the ear. Plasmids were administered in 1 ml doses, given intramuscularly in the hind-leg. Flunix was administered as a 2 ml dose according to the manufacturer's instructions, and delivered intramuscularly in the neck. The timetable of administration is outlined in Table 6 below.\nPrior to challenge, pigs were treated with recombinant cytokines, flunix or plasmids as described Table 7. Pigs were anaesthetised and infected intratracheally with 7.5×10^5 pfu App on day 0.\nBlood was sampled from pigs by venipuncture at 0, 24 h and 14 days post-challenge. Blood was assayed for immunological parameters as previously described. Pigs were weighed weekly from delivery of plasmids and for 2 weeks after challenge.\nAt the conclusion of the trial, pigs were euthanased and the lungs removed for post-mortem examination. Lungs were scored for pleurisy from 0-5 (FIGS. 39 and 40) and the degree of pleuropneumonia was determined by weighing affected lung and expressed as a percentage of total lung weight (FIGS. 41 and 42). Pigs treated with flunix and IL-1ra had less pleurisy than the saline controls (FIG. 39)."}, "[2]": {"experiment": "Growth performance of pigs treated with IL-1ra or saline at zero, reduced and normal antibiotic medication (Example 2)", "settings": "for total group weight at the end of the weaner phase: FIG. 10", "experimental": "Recombinant porcine IL-1ra was expressed in E. coli and purified using a polyhis tag system. IL-1ra was tested for biological activity in a bioassay prior to the start of the experiment.\nThe experiment was undertaken in a commercial environment where the pigs were weaned at 28 days of age. All injections were 1 ml. There were 16 pigs per treatment, 8 males and 8 females per treatment. The mean weight of treatment groups were similar at the start of the experiment.\nA. Saline injection, 1 ml IM neck muscle.\nB. 100 ug IL-1ra injection, 1 ml IM neck muscle. Injections were administered twice weekly during the weaner stage, and weekly throughout the grower and finisher stages.\nPigs were weaned and weighed at the commencement of the experiment (D0, W0). Weights were recorded weekly throughout the weaner phase (W0-W6), during the grower phase (W9), at the end of the grower phase (W13), during the finisher phase (W 16) and at the end of the finisher phase prior to slaughter at W19. Blood samples were collected at the start of the experiment and at the end of the weaner phase, grower phase and finisher phase. Haematology and immunological analyses were performed. At slaughter, carcass characteristics including P2 backfat measurements and dressed carcass weight were noted."}, "[3]": {"experiment": "Growth performance of weaner pigs treated with IL-1ra or saline, with or without in-feed antibiotics (Example 1)", "settings": "for warm carcass weight: FIG. 6; for rate of gain over the grower phase: D79 and D93, FIG. 3", "experimental": "Recombinant porcine. IL-1ra was expressed in E. coli and purified using a polyhis tag system. IL-1ra was tested for biological activity in a bioassay prior to the start of the experiment.\nMale weaner pigs (28 days old) were allocated to treatment groups of 20 as described in Table 1. The mean weight for each treatment group was equal, with equal variance. Pigs were housed in group pens of 20, with 2 pens provided with medicated water and feed as per current industry standards, while 2 pens were given unmedicated water and feed. Pigs were injected twice weekly with recombinant IL-1ra or saline (control), in a volume of 1 ml, for the duration of the weaner phase (42 days), as described in Table 2.\nUpon commencement of the weaner phase (day 0) and upon completion of the weaner phase (day 42), pigs were […]"}, "[4]": {"tested_on": "Actinobacillus pleuropneumoniae (App)", "experiment": "App challenge of pigs, prophylactic recombinant IL-1ra, plasmid IL-1ra or flunix (Example 5)", "settings": "day 13 after challenge compared with pre-challenge levels; FIG. 35"}}}
{"molecule": "IL-1ra: Recombinant porcine IL-1ra expressed in E. coli and purified using a polyhis tag system (protein, UniProt Q29056 26-177, looked up, polyhistidine tag, Recombinant porcine IL-1ra expressed in E. coli and purified using a polyhis tag system) Interleukin-1 receptor …: HPLGKRPCRMQAFRIWDVNQKTFYLRNNQLVAGYLQGPNTKLEEKIDVVPVEPHFVFLGIHGGKLCLSCVKSGDEMKLQLDAVNITDLRKNSEQDKRFTFIRSDSGPTTSFESAACPGWFLCTALEADQPVGLTNTPKAAVKVTKFYFQQDQ", "values": [{"measurement": "improvements in weight gain over saline controls", "setting": "[1]; 14d App challenge, FIG. 33", "value": 53.8, "unit": "%"}, {"measurement": "daily rate of gain", "setting": "[1]; 14d challenge with App, FIG. 32", "value": 667, "unit": "g per day"}, {"measurement": "reduction in clinical symptoms compared to saline", "setting": "[1]; FIG. 38", "value": 72, "unit": "%"}, {"measurement": "heavier at the termination of the experiment than saline treated peers", "setting": "[1]; after 2 weeks of challenge", "value": 4, "unit": "kg"}, {"measurement": "improvement in growth vs saline", "setting": "[1]; after 2 weeks of challenge", "value": 69, "unit": "%"}, {"measurement": "production of IL-6 (mRNA in peripheral blood)", "setting": "[1]; after App challenge, compared with saline treated controls, FIG. 36", "value": "reduce the production"}, {"measurement": "growth during the week of challenge", "setting": "[1]; first week after App challenge, FIG. 30", "value": "positive growth"}, {"measurement": "clinical signs of App disease (mean clinical scores over 30 visits)", "setting": "[1]; first week of challenge, vs saline-treated controls, p<0.05, FIG. 37", "value": "significantly reduced clinical signs of disease"}, {"measurement": "reduction in affected lung mass compared to saline treated controls", "setting": "[1]; percentage of lung affected by App lesions, FIG. 42", "value": 73.9, "unit": "%"}, {"measurement": "reduction of pleurisy compared to saline treated controls", "setting": "[1]; pleurisy score 0-5 at necropsy, FIG. 40", "value": 22, "unit": "%"}, {"measurement": "weight at the end of the weaner phase", "setting": "[2]; 100 ug IL-1ra, all 3 levels of medication, FIG. 8", "value": "weighed more than their saline treated counterparts"}, {"measurement": "P2 backfat levels at slaughter", "setting": "[2]; IL-1ra in absence of antibiotics, FIG. 13", "value": "comparable to those of pigs treated with saline and provided full antibiotic medication"}, {"measurement": "finishing weight, more than saline treated pigs", "setting": "[2]; absence of antibiotic medication, FIG. 12", "value": 16.7, "unit": "%"}, {"measurement": "number of pigs experiencing weight loss or mortality over the weaner period", "setting": "[2]; absence of antibiotics, FIG. 9", "value": "2 out of 16 pigs"}, {"measurement": "total group weight at the end of the weaner phase", "setting": "[2]; full medication", "value": 451, "unit": "kg"}, {"measurement": "total group weight at the end of the weaner phase", "setting": "[2]; no medication", "value": 369, "unit": "kg"}, {"measurement": "increase in productivity (group weight vs saline)", "setting": "[2]; normal antibiotic administration", "value": 11.1, "unit": "%"}, {"measurement": "increase in productivity (group weight vs saline)", "setting": "[2]; reduced antibiotic administration", "value": 20.4, "unit": "%"}, {"measurement": "total group weight at the end of the weaner phase", "setting": "[2]; reduced medication", "value": 390, "unit": "kg"}, {"measurement": "weight at the end of the grower phase", "setting": "[2]; regardless of medication level, FIG. 11", "value": "heavier than all the saline treatment"}, {"measurement": "deleterious effects of continuous administration", "setting": "[2]; twice weekly in weaner stage, weekly in grower and finisher stages", "value": "did not have any deleterious effects"}, {"measurement": "increase in productivity (group weight vs saline)", "setting": "[2]; zero antibiotic administration", "value": 26.4, "unit": "%"}, {"measurement": "rate of gain over weeks 5 and 6 of the weaner phase", "setting": "[3]; 200 μg IL-1ra twice weekly, both medicated and non-medicated feeding regimes, FIG. 2", "value": "outperforming saline treated pigs"}, {"measurement": "rate of gain over the first 4 weeks of the weaner phase", "setting": "[3]; 200 μg IL-1ra twice weekly, vs saline controls, FIG. 1", "value": "performed as well as saline controls"}, {"measurement": "warm carcass weight", "setting": "[3]; IL-1ra in absence of antibiotics", "value": "equal to that obtained by pigs fed antibiotics and treated with saline"}, {"measurement": "warm carcass weight", "setting": "[3]; IL-1ra in presence of antibiotics", "value": "greater than that of their saline-treated counterparts"}, {"measurement": "average weight at slaughter, heavier than pigs treated with saline and provided with in-feed antibiotics", "setting": "[3]; IL-1ra in weaner phase in absence of in-feed antibiotics, FIG. 5", "value": 0.7, "unit": "kg"}, {"measurement": "rate of gain over the grower phase", "setting": "[3]; IL-1ra in weaner phase with medicated diet", "value": "highest rate of gain"}, {"measurement": "rate of gain over the grower phase", "setting": "[3]; IL-1ra in weaner phase without in-feed medication", "value": "grow as quickly as pigs treated with saline and provided with in-feed medication"}, {"measurement": "rate of gain over the finisher phase", "setting": "[3]; IL-1ra in weaner phase without medicated diet, FIG. 4", "value": "highest rate of gain of all groups"}, {"measurement": "feed conversion ratio during the finisher phase", "setting": "[3]; day 93-day 133, treatment during weaner phase, IL-1ra in absence of in-feed antibiotics, FIG. 7", "value": 2.49}, {"measurement": "levels of TNFα protein in the serum", "setting": "[4]", "value": "reduced levels of TNFα"}]}
